# Experiments:
# [1] = test system: U-2-OS cells; assay: Clonogenic assay upon GFP-TONSL induction; type: cell-based; conditions: siTONSL; presence and absence of CPT 50 nM 24 h; 12-15 days; +tet
# [2] = test system: histones H3–H4; assay: Pull-down with recombinant histones H3–H4; type: binding; conditions: GST-ARD with H3–H4 tetramers, 20 mM Tris pH 7.5, 0.5 M NaCl, 23 °C, 1 h; IVT full length TONSL with H3.1–H4 beads, 2 h
direct binding to histones H3–H4 in vitro [2],Molecule,viability of TONSL depleted cells (colony formation) [1]
–,"TONSL WT: siRNA resistant GFP-TONSL, wild type, inducible in U-2-OS (protein, left off: GFP, end not stated, kept) MSLERELRQLSKAKAKAQRAGQRREEAALCHQLGELLAGHGRYAEALEQHWQELQLRERADDPLGCAVAHRKIGERLAEMEDYPAALQHQHQYLELAHSLRNHTELQRAWATIGRTHLDIYDHCQSRDALLQAQAAFEKSLAIVDEELEGTLAQGELNEMRTRLYLNLGLTFESLQQTALCNDYFRKSIFLAEQNHLYEDLFRARYNLGTIHWRAGQHSQAMRCLEGARECAHTMRKRFMESECCVVIAQVLQDLGDFLAAKRALKKAYRLGSQKPVQRAAICQNLQHVLAVVRLQQQLEEAEGRDPQGAMVICEQLGDLFSKAGDFPRAAEAYQKQLRFAELLDRPGAERAIIHVSLATTLGDMKDHHGAVRHYEEELRLRSGNVLEEAKTWLNIALSREEAGDAYELLAPCFQKALSCAQQAQRPQLQRQVLQHLHTVQLRLQPQEAPETETRLRELSVAEDEDEEEEAEEAAATAESEALEAGEVELSEGEDDTDGLTPQLEEDEELQGHLGRRKGSKWNRRNDMGETLLHRACIEGQLRRVQDLVRQGHPLNPRDYCGWTPLHEACNYGHLEIVRFLLDHGAAVDDPGGQGCEGITPLHDALNCGHFEVAELLLERGASVTLRTRKGLSPLETLQQWVKLYRRDLDLETRQKARAMEMLLQAAASGQDPHSSQAFHTPSSLLFDPETSPPLSPCPEPPSNSTRLPEASQAHVRVSPGQAAPAMARPRRSRHGPASSSSSSEGEDSAGPARPSQKRPRCSATAQRVAAWTPGPASNREAATASTSRAAYQAAIRGVGSAQSRLGPGPPRGHSKALAPQAALIPEEECLAGDWLELDMPLTRSRRPRPRGTGDNRRPSSTSGSDSEESRPRARAKQVRLTCMQSCSAPVNAGPSSLASEPPGSPSTPRVSEPSGDSSAAGQPLGPAPPPPIRVRVQVQDHLFLIPVPHSSDTHSVAWLAEQAAQRYYQTCGLLPRLTLRKEGALLAPQDLIPDVLQSNDEVLAEVTSWDLPPLTDRYRRACQSLGQGEHQQVLQAVELQGLGLSFSACSLALDQAQLTPLLRALKLHTALRELRLAGNRLGDKCVAELVAALGTMPSLALLDLSSNHLGPEGLRQLAMGLPGQATLQSLEELDLSMNPLGDGCGQSLASLLHACPLLSTLRLQACGFGPSFFLSHQTALGSAFQDAEHLKTLSLSYNALGAPALARTLQSLPAGTLLHLELSSVAAGKGDSDLMEPVFRYLAKEGCALAHLTLSANHLGDKAVRDLCRCLSLCPSLISLDLSANPEISCASLEELLSTLQKRPQGLSFLGLSGCAVQGPLGLGLWDKIAAQLRELQLCSRRLCAEDRDALRQLQPSRPGPGECTLDHGSKLFFRRL",partially rescued viability
bound directly to histones H3–H4,"Full length TONSL: in vitro-translated full length TONSL (protein, 35S-methionine) MSLERELRQLSKAKAKAQRAGQRREEAALCHQLGELLAGHGRYAEALEQHWQELQLRERADDPLGCAVAHRKIGERLAEMEDYPAALQHQHQYLELAHSLRNHTELQRAWATIGRTHLDIYDHCQSRDALLQAQAAFEKSLAIVDEELEGTLAQGELNEMRTRLYLNLGLTFESLQQTALCNDYFRKSIFLAEQNHLYEDLFRARYNLGTIHWRAGQHSQAMRCLEGARECAHTMRKRFMESECCVVIAQVLQDLGDFLAAKRALKKAYRLGSQKPVQRAAICQNLQHVLAVVRLQQQLEEAEGRDPQGAMVICEQLGDLFSKAGDFPRAAEAYQKQLRFAELLDRPGAERAIIHVSLATTLGDMKDHHGAVRHYEEELRLRSGNVLEEAKTWLNIALSREEAGDAYELLAPCFQKALSCAQQAQRPQLQRQVLQHLHTVQLRLQPQEAPETETRLRELSVAEDEDEEEEAEEAAATAESEALEAGEVELSEGEDDTDGLTPQLEEDEELQGHLGRRKGSKWNRRNDMGETLLHRACIEGQLRRVQDLVRQGHPLNPRDYCGWTPLHEACNYGHLEIVRFLLDHGAAVDDPGGQGCEGITPLHDALNCGHFEVAELLLERGASVTLRTRKGLSPLETLQQWVKLYRRDLDLETRQKARAMEMLLQAAASGQDPHSSQAFHTPSSLLFDPETSPPLSPCPEPPSNSTRLPEASQAHVRVSPGQAAPAMARPRRSRHGPASSSSSSEGEDSAGPARPSQKRPRCSATAQRVAAWTPGPASNREAATASTSRAAYQAAIRGVGSAQSRLGPGPPRGHSKALAPQAALIPEEECLAGDWLELDMPLTRSRRPRPRGTGDNRRPSSTSGSDSEESRPRARAKQVRLTCMQSCSAPVNAGPSSLASEPPGSPSTPRVSEPSGDSSAAGQPLGPAPPPPIRVRVQVQDHLFLIPVPHSSDTHSVAWLAEQAAQRYYQTCGLLPRLTLRKEGALLAPQDLIPDVLQSNDEVLAEVTSWDLPPLTDRYRRACQSLGQGEHQQVLQAVELQGLGLSFSACSLALDQAQLTPLLRALKLHTALRELRLAGNRLGDKCVAELVAALGTMPSLALLDLSSNHLGPEGLRQLAMGLPGQATLQSLEELDLSMNPLGDGCGQSLASLLHACPLLSTLRLQACGFGPSFFLSHQTALGSAFQDAEHLKTLSLSYNALGAPALARTLQSLPAGTLLHLELSSVAAGKGDSDLMEPVFRYLAKEGCALAHLTLSANHLGDKAVRDLCRCLSLCPSLISLDLSANPEISCASLEELLSTLQKRPQGLSFLGLSGCAVQGPLGLGLWDKIAAQLRELQLCSRRLCAEDRDALRQLQPSRPGPGECTLDHGSKLFFRRL",–
bound directly to histones H3–H4,"WT: human TONSL Ankyrin Repeat Domain (residues 512–692), wild type (protein, left off: GST, end not stated, cleaved) GHLGRRKGSKWNRRNDMGETLLHRACIEGQLRRVQDLVRQGHPLNPRDYCGWTPLHEACNYGHLEIVRFLLDHGAAVDDPGGQGCEGITPLHDALNCGHFEVAELLLERGASVTLRTRKGLSPLETLQQWVKLYRRDLDLETRQKARAMEMLLQAAASGQDPHSSQAFHTPSSLLFDPETS",–

# — paper PMC4939875 (Nature, 2016)
